Laboratory results reported in US8450481B2, “Compounds for inhibiting protein aggregation, and methods for making and using them” (The Regents of the University of California, priority 2007, dated 2013).

Experiments:
[1] = tested on: HEK293T cells expressing α-syn; assay: ion currents in HEK293T cells expressing α-syn; type: cell-based; conditions: extracellular application of 500 μM Zn^2+, +80 mv
From the text: FIG. 3K, FIG. 3L and FIG. 3M graphically illustrate data showing representative currents elicited by depolarizing the cells from a holding potential of −50 mv to a series of test potentials ranging from −80 to +80 mv, and corresponding current-voltage relationship (E; means±SE) in transduced cells. Cells expressing α-syn display a significant increase in ion currents. FIG. 3N left panel graphically illustrates representative currents at +80 mv (left panel) before (Cont), during (Zn^2+) and after (Wash) application of 500 μM Zn^2+. FIG. 3N, right panel, graphically illustrates the time course of the change in current density before, during, and after extracellular application of Zn^2+. The arrows correspond to the currents shown in the left panel (Cont, a; Zn^2+, b; and Washout, c). The increased currents in cells expressing α-syn are attenuated by Zn^2+.

[2] = molecular target: T1, SYN (Homo sapiens, UniProt P37840); assay: cell free SYN aggregation assay with immunoblot; type: biochemical; conditions: for blocking SYN aggregation in cell free system, compared with the other peptides and controls: immunoblot
Protocol: The peptides of the invention were tested in a cell free system with the appropriate controls (smaller and larger peptides, amino acid (aa) substitutions, scrambled sequence). For this purpose recombinant SYN (10 uM) was incubated at 37 and 65 degrees C. for 0, 4, 6, 12 and 24 with the peptides at 0, 1 and 10 uM. Control experiments where performed with beta and gamma-synuclein as well as with a mutant SYN molecule that cannot bind the peptide. The mixture was run in a gel, followed by immunoblot testing with SYN antibodies.

[3] = tested on: neuronal cultures overexpressing α-syn; assay: neuronal viability by LDH assay in neuronal cultures overexpressing α-syn; type: cell-based
From the text: FIG. 17 illustrates the effects of a peptide blocker of α-syn aggregation of this invention in neuronal viability.

[4] = molecular target: T1, SYN; assay: α-syn aggregation/accumulation in neuronal cultures overexpressing α-syn (B103 neuronal cell line, lentivirus SYN); type: cell-based; parameters: expressed in transfected cells; host or cells: B103 neuronal cell line, lentiviral transduction; conditions: 24 hrs
Protocol: The B103 neuronal cell line was infected with a lentivirus expressing SYN (wildtype) or GFP (control) and cells expressing SYN were exposed to the peptides at 0, 1 and 10 uM for 24 hrs. Cells were assayed for SYN aggregation by immunoblot, neurite outgrowth and survival. […] The peptide KKDQLGK (SEQ ID NO:1) and control peptides can be injected into the brain of SYN transgenic (tg) mice to test for in vivo effects.

[5] = molecular target: T2, α-syn (Homo sapiens, UniProt P37840); assay: intraventricular infusion in α-syn transgenic mice; type: in vivo
T2 construct: from tissue; host or cells: brain (hippocampus) of thy1-α-syn transgenic mice
Protocol: FIG. 19 illustrates the effects of peptide blocker of α-syn aggregation in vivo in α-syn (α-syn) transgenic mice. FIG. 19A illustrates the experimental design: for these studies the thy1-overexpressing α-syn received intraventricular infusions with osmotic minipumps of control scrambled peptide, or the exemplary peptide of this invention 96-102 KKDQLGK (SEQ ID NO:1) for 6 weeks, at 30 μM peptide, where 200 μl of solution is minipumped into the lateral ventricle of the animal.

[6] = tested on: neuronal cultures overexpressing α-syn; assay: intracellular calcium influx by Fluo-4 and FLIPR assay in neuronal cultures overexpressing α-syn; type: cell-based; conditions: after 24 hrs at 37° C., compared to vehicle and scrambled peptide controls
From the text: FIG. 18 illustrates the effects of a peptide blocker of α-syn aggregation of this invention in neuronal calcium levels. FIG. 18A is a micrograph illustration showing that in neuronal cultures overexpressing α-syn there is a significant time dependent increase in intracellular calcium influx as determined by Fluo-4 and the FLIPR assay. […] (arrow) compared to vehicle and scrambled peptide controls. Data from these studies is graphically summarized on the right hand panels.

Row | Compound | increased ion currents in cells expressing α-syn [1] | α-syn aggregation, cell free immunoblot assays ([2]; at 37° C. and 65° C.) | blocking SYN aggregation in cell free system, compared with the other peptides and controls [2] | neuronal viability as assayed by the LDH assay [3] | blocking SYN aggregation in neuronal cell based system, compared with the other peptides and controls ([4]; immunoblot, B103 cells expressing SYN) | α-syn accumulation in neuronal cultures overexpressing α-syn ([4]; peptide at 1 uM, compared to vehicle) | levels of monomeric and aggregated α-syn, immunoblot ([5]; infusion, compared to scrambled peptide controls) | neuronal α-syn accumulation in the hippocampus ([5]; intraventricular infusion 6 weeks, 30 μM peptide, compared to scrambled peptide) | neuronal calcium influx [6]
1 | [Zn+2] [Zn^2+] | attenuated |  |  |  |  |  |  |  | 
2 | KKDQLGK [amino acids 96-102 of human SYN] |  | reduced aggregation | most effective at blocking SYN aggregation | improved neuronal viability | most effective at blocking SYN aggregation | reduced accumulation of α-syn dimer | significant reduction | significant reduction in neuronal α-syn accumulation | reduced neuronal calcium influx
3 | EKTKEQVTN [amino acids 57-65 of SYN] |  |  | most effective at blocking SYN aggregation |  |  |  |  |  | 
